Source: patent US6545128 (BURNHAM INSTITUTE, dated 2003)

Molecular target: T1, 35S-labeled in vitro translated HA-tagged BI-2 (human, UniProt Q9NZS9 1-450, 35S-labeled methionine (in vitro translation))
T1 construct: Made by TNT rabbit reticulocyte in vitro transcription/translation; also called HA-BI-2; not shown: three copies of the HA tag at the N-terminus (vector pSN503)
T1 sequence: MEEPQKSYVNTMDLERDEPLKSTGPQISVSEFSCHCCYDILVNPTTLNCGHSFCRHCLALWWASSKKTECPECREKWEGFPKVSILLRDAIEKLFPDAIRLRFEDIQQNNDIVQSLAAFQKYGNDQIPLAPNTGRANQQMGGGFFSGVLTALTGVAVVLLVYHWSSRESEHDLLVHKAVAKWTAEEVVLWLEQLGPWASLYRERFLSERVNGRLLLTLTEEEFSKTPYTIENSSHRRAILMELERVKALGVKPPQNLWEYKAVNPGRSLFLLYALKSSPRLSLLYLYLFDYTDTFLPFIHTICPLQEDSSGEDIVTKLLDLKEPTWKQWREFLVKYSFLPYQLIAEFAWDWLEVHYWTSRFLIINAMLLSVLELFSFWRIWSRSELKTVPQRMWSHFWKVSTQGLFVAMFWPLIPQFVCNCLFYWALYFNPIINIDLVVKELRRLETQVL
Test: GST pull-down: about 5 ug GST fusion protein on glutathione SEPHAROSE, 35S-labeled in vitro translated HA-BI-2, SDS-PAGE and autoradiography
Description: Approximately 5 µg of the following fusion proteins, including GST control, GST-CD40 cytosolic domain, GST-Bcl-2, GST-Bax or GST-BI-2, were immobilized on glutathione SEPHAROSE, then 8 µl of ^35S-labeled in vitro translated HA-tagged BI-2 in binding buffer was added. After incubation at 4° C. for 2 hr, the beads were washed 5× with binding buffer and the associated proteins were eluted in Laemli sample buffer and analyzed by SDS-PAGE (10% gel). As a control, ^35S-labeled BI-2 was loaded directly into the gel, using one-quarter the amount employed for the binding experiments. Following electrophoresis, the gels were dried and exposed to X-ray film.

B1: GST-CD40 cytosolic domain (other, UniProt P25942 216-277, looked up)
chain: KKVAKKPTNKAPHPKQEPQEINFPDDLPGSNTAAPVQETLHGCQPVTQEDGKESRISVQERQ
notes: domain: cytosolic domain; Unrelated control protein; not shown: glutathione S-transferase (GST) fusion partner
B1: no binding.
